Results as given in patent US20240336686A1 (ELPISCIENCE SUZHOU BIOPHARMA, published 2024).
Like-named read-outs stand apart in the source and are kept apart here. Values belong to the binder of their own block, whether it stands above or below them.

What was measured:
[1] = target: T1, His tagged human SIRPα v1 ECD (human, UniProt P78324 31-373); experiment: HDX-MS
T1 construct: extracellular domain; not shown: His tag

[2] = target: T2, Full length human SIRPα v1 with beta-gal fragment (ED) at its C-terminal, in K562 cells (human, UniProt P78324 31-504); experiment: cell-based or functional assay
T2 sequence (P78324 31-504): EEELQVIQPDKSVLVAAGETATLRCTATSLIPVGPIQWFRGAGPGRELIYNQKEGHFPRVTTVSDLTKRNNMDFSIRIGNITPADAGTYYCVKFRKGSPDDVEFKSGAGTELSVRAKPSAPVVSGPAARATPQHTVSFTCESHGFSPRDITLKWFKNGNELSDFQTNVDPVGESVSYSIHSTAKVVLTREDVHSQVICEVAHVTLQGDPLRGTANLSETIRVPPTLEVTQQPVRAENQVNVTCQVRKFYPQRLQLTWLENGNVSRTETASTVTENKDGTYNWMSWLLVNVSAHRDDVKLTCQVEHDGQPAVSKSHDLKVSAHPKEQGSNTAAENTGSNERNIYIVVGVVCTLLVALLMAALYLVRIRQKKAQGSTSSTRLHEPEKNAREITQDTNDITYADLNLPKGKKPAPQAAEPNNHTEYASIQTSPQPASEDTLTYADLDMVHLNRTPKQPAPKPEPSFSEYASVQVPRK

[3] = target: T2, Full length human SIRPα v1 with …; experiment: cell-based or functional assay; remark: listed apart in the source
Human SIRPα v2 = target: T3, Human SIRPα v2 (human); experiment: SPR (Biacore), 1:1 binding model
T3 construct: also called human SIRPα v2 (antigen of the Biacore assay)
Method: The humanized antibodies were characterized for binding affinity against human SIRPα v1, human SIRPα v2 using Surface Plasmon Resonance technology (Biacore system). The association and dissociation curves were fit with 1:1 binding model, and the Ka/Kd/KD values for each antibody were calculated.

[4] = target: T4, human SIRPα v1 on CHOK1 cells (human, UniProt P78324 31-504); experiment: FACS, CHOK1 cells stably expressing human SIRPα v1
T4 construct: whole, on cells; also called CHOK1-hSIRPα v1; cell surface human SIRPα v1
T4 sequence (P78324 31-504): as above
Source text: (§1) Binding activity of the purified chimeric antibodies against human SIRPα variants was detected by FACS assay using CHOK1 cells or 293F cells stably expressing human SIRPα v1 and CHOK1 cells stably expressing human SIRPα v2. […] EC₅₀ and top signal calculated using GraphPad Prism9.0.

[5] = target: T5, human SIRPα v2 on CHOK1 cells (human, UniProt P78324 31-504); experiment: FACS, CHOK1 cells stably expressing human SIRPα v2
T5 construct: whole, on cells; also called CHOK1-hSIRPα v2; cell surface human SIRPα v2
T5 sequence (P78324 other isoform, or with tags, fused parts or gaps limits assumed): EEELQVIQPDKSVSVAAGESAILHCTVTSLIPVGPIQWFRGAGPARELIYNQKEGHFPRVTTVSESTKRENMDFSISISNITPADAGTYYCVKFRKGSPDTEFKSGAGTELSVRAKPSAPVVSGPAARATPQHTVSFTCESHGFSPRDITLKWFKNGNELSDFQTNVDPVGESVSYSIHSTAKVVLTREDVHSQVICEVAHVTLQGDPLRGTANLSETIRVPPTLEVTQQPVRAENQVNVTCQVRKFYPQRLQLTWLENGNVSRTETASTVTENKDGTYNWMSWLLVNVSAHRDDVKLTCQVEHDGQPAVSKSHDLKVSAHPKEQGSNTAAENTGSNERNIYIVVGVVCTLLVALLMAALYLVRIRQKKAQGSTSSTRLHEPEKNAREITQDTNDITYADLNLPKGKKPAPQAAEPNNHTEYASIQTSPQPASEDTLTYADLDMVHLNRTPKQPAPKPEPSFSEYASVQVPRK
Source text: as §1

[6] = target: T4, human SIRPα v1 on CHOK1 cells; experiment: FACS, CHOK1 cells stably expressing human SIRPα v1; remark: listed apart in the source
[7] = target: T5, human SIRPα v2 on CHOK1 cells; experiment: FACS, CHOK1 cells stably expressing human SIRPα v2; remark: listed apart in the source
[8] = target: T6, mFc tagged human SIRPα v1 ECD recombinant protein (human, UniProt P78324 31-373); experiment: competitive ELISA; row antibody in excess in solution, coated mAb 025c
T6 construct: extracellular domain; not shown: mouse Fc tag
T6 sequence (P78324 31-373): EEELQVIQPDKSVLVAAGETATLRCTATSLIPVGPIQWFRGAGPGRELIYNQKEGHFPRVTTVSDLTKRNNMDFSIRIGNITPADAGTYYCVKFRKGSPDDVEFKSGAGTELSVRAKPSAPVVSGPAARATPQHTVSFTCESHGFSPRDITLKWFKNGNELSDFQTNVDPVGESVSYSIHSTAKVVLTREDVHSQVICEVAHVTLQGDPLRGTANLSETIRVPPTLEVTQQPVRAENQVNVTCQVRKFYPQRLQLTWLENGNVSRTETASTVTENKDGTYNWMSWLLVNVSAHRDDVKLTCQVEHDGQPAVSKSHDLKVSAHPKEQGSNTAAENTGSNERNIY
Method: (§2) Competitive ELISA assay was used for epitope binning of purified chimeric antibodies. Briefly excessive competitor antibody and mFc tagged human SIRPα v1 ECD recombinant protein were co-incubated with ELISA microplate coated antibody. After washing, HRP labeled anti-mouse Fc 2nd antibody (Sigma) was added and incubated at 37° C. for 1 hour. Then, 100 μl/well of TMB solution (Biotechnology) was added. After incubation for 15 minutes at room temperature, the reaction was stopped by the addition of 50 μl of 1N HCl. OD 450 nm was read. Competition ratio was calculated. The antibodies that can compete each other for binding to SIRPα may have related binding epitopes.

[9] = target: T6, mFc tagged human SIRPα v1 ECD …; experiment: competitive ELISA; row antibody in excess in solution, coated mAb 042c
Method: as §2

[10] = target: T6, mFc tagged human SIRPα v1 ECD …; experiment: competitive ELISA; row antibody in excess in solution, coated mAb hu1H9G4
Method: as §2

[11] = target: T7, human SIRPα v1 ECD recombinant protein (human, UniProt P78324 31-373); experiment: competitive ELISA, plate-coated human SIRPα v1 ECD; blocked ligand: mFc tagged human CD47 ECD
T7 construct: extracellular domain; Coated on the ELISA plate
T7 sequence (P78324 31-373): as above
Method: (§3) Competitive ELISA assay was used to determine whether the purified chimeric antibodies can block CD47 and SIRPα interaction. Briefly, antibody and mFc tagged human CD47 ECD recombinant protein were co-incubated with ELISA microplate coated human SIRPα v1 ECD or human SIRPα v2 ECD recombinant protein. The concentration of soluble ECD of CD47 is 25 nM, and the concentration of soluble ECD of SIRPα is 20 nM. After washing, HRP labeled anti-mouse Fc 2nd antibody (Sigma) was added and incubated at 37° C. for 1 hour. Then, 100 μl/well of TMB solution (Biotechnology) was added. After incubation for 15 minutes at room temperature, the reaction was stopped by the addition of 50 μl of 1N HCl. OD 450 nm was read. Blocking ratio was determined by blockade of human SIRPα ECD recombinant protein binding to ELISA microplate coated human CD47 ECD recombinant protein. All antibodies as tested can block interaction between human CD47 and different human SIRPα variants.

[12] = target: T8, human SIRPα v2 ECD recombinant protein (human); experiment: competitive ELISA, plate-coated human SIRPα v2 ECD; blocked ligand: mFc tagged human CD47 ECD
T8 construct: extracellular domain; Coated on the ELISA plate
Method: as §3

[13] = target: T7, human SIRPα v1 ECD recombinant protein; experiment: competitive ELISA, plate-coated human SIRPα v1 ECD; blocked ligand: mFc tagged human CD47 ECD; remark: listed apart in the source
Method: as §3
(§4) The humanized antibodies were tested for the ability to block CD47 and SIRPα interaction with competitive ELISA assay (refer to methods described above).

[14] = target: T8, human SIRPα v2 ECD recombinant protein; experiment: competitive ELISA, plate-coated human SIRPα v2 ECD; blocked ligand: mFc tagged human CD47 ECD; remark: listed apart in the source
Method: as §3, §4

[15] = target: T7, human SIRPα v1 ECD recombinant protein; experiment: competitive ELISA, plate-coated human SIRPα v1 ECD; blocked ligand: mFc tagged human CD47 ECD; remark: listed apart in the source
Method: as §3, with “ECD” for “ECD or human SIRPα v2 ECD”, “protein.” for “protein. The concentration of soluble ECD of CD47 is 25 nM, and the concentration of soluble ECD of SIRPα is 20 nM.”, “protein.” for “protein. All antibodies as tested can block interaction between human CD47 and different human SIRPα variants.”

[16] = target: T4, human SIRPα v1 on CHOK1 cells; experiment: competitive FACS, CHOK1 cells stably expressing human SIRPα v1; blocked ligand: mFc tagged human CD47 ECD
Method: (§5) Competitive FACS assay was also set up to further compare the blocking activity of the humanized antibodies and some known anti-SIRPα antibodies. Briefly antibody and mFc tagged human CD47 ECD recombinant protein were co-incubated with CHOK1 cells stably expressing human SIRPα v1 or human SIRPα v2. After washing, dye labeled anti-mouse Fc 2nd antibody (Sigma) was added and incubated at 37° C. for 1 hour. Fluorescence intensity was detected. Blocking ratio was determined by blockade of human CD47 ECD recombinant protein binding to SIRPα expressed CHOK1 cells.

[17] = target: T5, human SIRPα v2 on CHOK1 cells; experiment: competitive FACS, CHOK1 cells stably expressing human SIRPα v2; blocked ligand: mFc tagged human CD47 ECD
Method: as §5

T1 sequence (P78324 31-373): as above

binding result [1]: binds
B1: Reference anti-SIRPα antibody HEFLB (antibody, human IgG4, V domains shown)
VH: EVQLVQSGAEVKKPGESLRISCKASGYSFTSYWVHWVRQMPGKGLEWMGNIDPSDSDTHYSPSFQGHVTLSVDKSISTAYLQLSSLKASDTAMYYCVRGGTGTLAYFAYWGQGTLVTVSS
VL: DVVMTQSPLSLPVTLGQPASISCRSSQSLVHSYGNTYLYWFQQRPGQSPRLLIYRVSNRFSGVPDRFSGSGSGTDFTLKISRVEAEDVGVYYCFQGTHVPYTFGGGTKVEIK

IC50 (SHP-1 recruitment blocking) [2]: 0.28 nM
TOP blocking (SHP-1 recruitment) [2]: 84.5%
IC50 (SHP-1 recruitment blocking) [3]: 0.08 nM
TOP blocking (SHP-1 recruitment) [3]: 87%
Kd (Human SIRPα v2): 1.69 nM
koff (Human SIRPα v2): 0.00254 s⁻¹
kon (Human SIRPα v2): 1.51e+06 M⁻¹ s⁻¹
EC50 [4]: 1.49 nM
TOP MFI [4]: 77600 MFI
EC50 [5]: 1.34 nM
TOP MFI [5]: 51600 MFI
EC50 [6]: 1.22 nM
TOP MFI [6]: 64700 MFI
EC50 [7]: 0.99 nM
TOP MFI [7]: 53000 MFI
% Competition [8]: 93.5%
% Competition [9]: 19.1%
% Competition [10]: 15.3%
IC50 [11]: 2.12 nM
TOP blocking [11]: 96.5%
IC50 [12]: 2.21 nM
TOP blocking [12]: 96.5%
IC50 [13]: 2.03 nM
TOP blocking [13]: 97.5%
IC50 [14]: 1.86 nM
TOP blocking [14]: 98.6%
IC50 (read off the curve) [15]: ~2 nM
IC50 [16]: 0.4 nM
TOP blocking [16]: 97.6%
IC50 [17]: 0.63 nM
TOP blocking [17]: 99.7%
B2: Anti-SIRPα antibody C25 (antibody, V domains shown)
VH: EVQLQQSGAELVKPGASVKLSCTASGFNIKDYYMHWVKQRTEQGLEWIGRIDPEDGETKYAPKFQGKATITADTSSNTAYLQLSSLTSEDTAVYYCDRGLAYWGQGTLVTVSA
VL: QIVLTQSPAIMSASPGEKVTLTCSASSSVSSSYLYWYQQKPGSSPKLWIYSTSNLASGVPARFSGSGSGTSYSLTISSMEAEDAASYFCHQWSSYPYTFGGGTKLEIK
notes: Mouse variable regions; also called 025c; 025
